Measurements: publication PMC7263589, “Integration of phage and yeast display platforms: A reliable and cost effective approach for binning of peptides as displayed on-phage” (PLoS ONE, 2020)
Substitutions are numbered along the chain they refer to. Names may count otherwise. Bridge positions count the residues as written; N and C are the ends. Peptide text beside a SMILES is read from it.

Tests used:
[1] = biological target: FGL-containing peptide phage (FGL Phage); test: flow cytometry on yeast-displayed IL-23, phage detected with anti-M13-AF647; conditions: n = 2; parent: est. 24; read off a plot
IL-23 = biological target: T1, IL-23 (Homo sapiens, UniProt P29460+Q9NPF7); test: SPR direct binding to captured IL-23-AVI (Biacore T200); conditions: for kon: 50 μl/min, 10 mM HEPES pH 7.5, 150 mM NaCl, 0.005% P20, 3% DMSO, multi-cycle (single cycle kinetics for 23–652 and IL-23R), read-out: ka
T1 construct: made in house
T1 sequence (Q9NPF7 20-189): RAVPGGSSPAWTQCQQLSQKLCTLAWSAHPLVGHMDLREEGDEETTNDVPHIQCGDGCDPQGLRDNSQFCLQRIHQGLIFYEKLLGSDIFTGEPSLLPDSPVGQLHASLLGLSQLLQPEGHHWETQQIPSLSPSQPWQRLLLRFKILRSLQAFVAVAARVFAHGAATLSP
T1 sequence (P29460 23-328): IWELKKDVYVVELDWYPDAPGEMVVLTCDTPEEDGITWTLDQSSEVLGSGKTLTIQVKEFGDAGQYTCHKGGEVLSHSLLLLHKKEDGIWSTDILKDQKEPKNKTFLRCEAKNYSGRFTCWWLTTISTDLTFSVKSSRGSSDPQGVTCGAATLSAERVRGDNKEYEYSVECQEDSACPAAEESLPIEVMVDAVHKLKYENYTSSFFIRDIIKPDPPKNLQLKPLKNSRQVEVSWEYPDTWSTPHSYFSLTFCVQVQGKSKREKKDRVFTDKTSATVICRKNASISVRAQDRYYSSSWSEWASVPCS
Procedure: SPR (Biacore T200, GE Healthcare) was used to determine binding constants of the peptides against IL-23 and their competitiveness to IL-23R. All SPR experiments were performed at 25°C with flow rate of 50 μl/min. Assay buffer used in direct binding experiment was 10 mM HEPES pH 7.5, 150 mM NaCl, 0.005% P20, and 3% DMSO. Assay buffer used in competition experiment was 10 mM HEPES pH 7.5, 150 mM NaCl, 0.005% P20, and 1% BSA. All peptides were reconstituted first in DMSO as 10 mM stocks and then diluted into assay buffer. The proteins used in direct binding and competition SPR are described in S1 Table in S1 File. For direct binding of peptides against IL-23, 2000–9000 RU of IL-23-AVI was captured to streptavidin sensor chips (GE Healthcare, Series S Sensor Chip SA, BR-1005-31). Dilution series with 3-fold increment were prepared for each peptide. Initially, all peptides were tested up to 30 μM. Concentration range for some were then lowered accordingly based on affinity or nuisance behavior at high concentrations. SPR “multi-cycle” type was used for peptides 23–644, 23–437, 23–441, 23–446, and 23–447. Each cycle consisted of 30s of analyte injection and then 60s of buffer flow to monitor dissociation. “Single cycle kinetics” (SCK) type was used for 23–652 due to their long dissociation half-lives. Each SCK cycle consisted of five 60s injections of sample in increasing concentration with a final 600s of dissociation. To study IL-23 and IL-23R interaction, 200–1000 RU of IL-23-AVI and IL-23R-Fc-AVI were captured to streptavidin sensor chip. Dilution series with 3-fold increment of IL-23R-FLAG-HIS and IL-23-HIS were run in SCK cycle type as described above except the final dissociation time were 60-300s. Sensorgrams from the entire titration series for each sample were fitted globally to extract binding kinetics and affinity using Biacore T200 Evaluation Software 2.0 (GE Healthcare) according to a 1:1 binding model. To identify IL-23 binders that can block receptor binding, a competition SPR was established. In each SPR cycle, fresh IL-23R was capture (<1000 RU) by injecting 10 μg/ml of IL-23R-Fc-AVI to a Protein-A flow cell at 10 μl/min flow rate for 30s. Analyte consisted of a mixture of 20 nM of IL-23 protein and a single concentration of peptide was then injected for 30s at 50 μl/min to observe IL-23 binding. Finally, the Protein-A surface was regenerated by 10 mM Glycine pH 1.5 for 30s at 30 μl/min. IL-23 at 20 nM without peptide, “IL-23 only”, was used as control to quantify IL-23 binding without blockage; while “cold” IL-23R was used as a positive control for blockage.

IL-23-AVI [2] = biological target: T2, IL-23-AVI (human, UniProt Q9NPF7 20-189; P29460 23-328); test: AlphaScreen or HTRF; TR-FRET; compounds pre-incubated with IL-23R-FLAG 1 h, then IL-23-AVI; Europium-streptavidin and anti-FLAG-allophycocyanin; 25 mM HEPES, 150 mM NaCl, 0.02% Tween 20, 0.1% BSA, pH 7.4, 1% DMSO; n = 1; conditions: both partners purified
T2 construct: IL-23 p19 subunit, human; IL-12/IL-23 p40 subunit, human; Captured on streptavidin chips and beads, so biotinylation of the Avi tag is implied; also called Avi-tagged IL-23; recombinant IL-23
T2 sequence (looked up) 1: T1 sequence (Q9NPF7 20-189)
T2 sequence (looked up) 2: T1 sequence (P29460 23-328)

IL-23-AVI [3] = biological target: T2, IL-23-AVI; test: AlphaScreen or HTRF; AlphaLISA; IL-23-AVI (1.5 nM) pre-incubated with peptide 30 min, then FLAG-tagged IL-23R (3 nM); streptavidin donor and anti-FLAG acceptor beads; 25 mM HEPES pH 7.4, 150 mM NaCl, 0.02% Tween 20, 0.1% BSA; room temperature; n = 1; conditions: both partners purified
IL-23-AVI [4] = biological target: T2, IL-23-AVI; test: SPR; Biacore T200, 25°C, 50 μl/min; 2000–9000 RU of IL-23-AVI captured to streptavidin chip, peptides as analyte (3-fold series, up to 30 μM); 10 mM HEPES pH 7.5, 150 mM NaCl, 0.005% P20, 3% DMSO; multi-cycle, single cycle kinetics for 23–652; 1:1 model; n = 1; conditions: both partners purified
[5] = biological target: T3, Fluorescently labeled IL-23R, Q5VWK5; test: flow cytometry on yeast-displayed IL-23; conditions: chain shown with the change; n = 1; parent: est. 1.05; read off a plot
T3 chain: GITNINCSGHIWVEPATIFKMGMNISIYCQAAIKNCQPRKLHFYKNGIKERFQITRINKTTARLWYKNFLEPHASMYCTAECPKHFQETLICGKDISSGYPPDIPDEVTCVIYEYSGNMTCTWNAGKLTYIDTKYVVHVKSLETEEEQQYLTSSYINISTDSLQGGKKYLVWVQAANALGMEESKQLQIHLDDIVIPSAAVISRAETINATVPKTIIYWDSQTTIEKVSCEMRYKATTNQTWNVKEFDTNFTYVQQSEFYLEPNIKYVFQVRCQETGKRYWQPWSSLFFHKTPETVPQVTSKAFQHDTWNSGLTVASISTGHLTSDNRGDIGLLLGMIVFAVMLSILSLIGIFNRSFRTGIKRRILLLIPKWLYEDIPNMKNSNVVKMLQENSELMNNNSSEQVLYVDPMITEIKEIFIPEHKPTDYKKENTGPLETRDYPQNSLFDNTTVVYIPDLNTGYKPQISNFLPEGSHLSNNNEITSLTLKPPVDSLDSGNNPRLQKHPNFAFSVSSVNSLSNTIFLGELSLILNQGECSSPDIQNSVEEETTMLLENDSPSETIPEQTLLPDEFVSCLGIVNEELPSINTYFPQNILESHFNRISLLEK

[6] = IL-23-AVI captured on streptavidin chip, 25°C, 1:1 binding model, n = 1, 23–447 an estimate

Which response [1] does the source give for “wild-type IL-23 displayed on yeast (from UniProt Q9NPF7;P29460) W26A” here?
The response was 1.1.

For `CC(C)C[C@H](NC(=O)CN)C(=O)N[C@@H](CCCNC(=N)N)C(=O)N[C@@H](CCC(=O)O)C(=O)N[C@@H](CCCNC(=N)N)C(=O)N[C@H]1CSSC[C@@H](C(=O)N[C@@H](CCC(N)=O)C(=O)N[C@@H](CC(N)=O)C(=O)N[C@@H](Cc2c[nH]c3ccccc23)C(=O)N[C@@H](Cc2ccc(O)cc2)C(=O)N[C@@H](Cc2c[nH]c3ccccc23)C(=O)O)NC(=O)[C@H](Cc2ccccc2)NC(=O)[C@H](CCC(=O)O)NC(=O)[C@H](Cc2c[nH]cn2)NC(=O)CNC(=O)[C@H](Cc2ccc(O)cc2)NC(=O)[C@H](CC(N)=O)NC(=O)[C@H](CCCNC(=N)N)NC(=O)[C@H](C(C)C)NC1=O` [23–446] (H-GLRERCVRNYGHEFCQNWYW-OH; disulfide 6-15), which kon (IL-23; [6]) is on record?
Its kon is 3.88e+06 M⁻¹ s⁻¹.

Which results are given for `CC[C@H](C)[C@H](NC(=O)[C@H](CO)NC(=O)[C@H](Cc1c[nH]c2ccccc12)NC(=O)[C@H](CC(C)C)NC(=O)[C@H](CCSC)NC(=O)[C@@H]1CSSC[C@H](NC(=O)[C@H](CC(C)C)NC(=O)[C@@H](NC(=O)[C@H](CCC(N)=O)NC(=O)[C@H](CC(C)C)NC(=O)[C@@H](N)CC(C)C)[C@@H](C)O)C(=O)N[C@@H](CCC(N)=O)C(=O)N[C@@H](CCSC)C(=O)N[C@@H]([C@@H](C)O)C(=O)N[C@@H](CO)C(=O)N[C@@H](CC(=O)O)C(=O)N[C@@H](C)C(=O)N[C@@H](CCCNC(=N)N)C(=O)N[C@@H]([C@@H](C)O)C(=O)N1)C(=O)O` [23–443] (H-LLQTLCQMTSDARTCMLWSI-OH; disulfide 6-15 (inferred); N-terminus and C-terminus assumed)?
Kd (IL-23; IL-23-AVI captured on streptavidin chip, 25°C, 1:1 binding model, n = 1, 23–447 an estimate, NB: not binding as free peptide): > 30000 nM; binding to IL-23 as a free peptide (IL-23; chemically synthesized peptide): did not retain its binding

Which response [1] does the source give for “wild-type IL-23 displayed on yeast (from UniProt Q9NPF7;P29460) L24A” here?
Its response is 17.

How did the response [1] turn out when “wild-type IL-23 displayed on yeast (from UniProt Q9NPF7;P29460) K20A” was run?
Its response is 22.

For “wild-type IL-23 displayed on yeast (from UniProt Q9NPF7;P29460) W137A”, which response [1] is on record?
The response was 23.

How did the kon (IL-23; [6]) turn out when `CSCC[C@H](NC(=O)[C@H](CCC(N)=O)NC(=O)[C@@H]1CSSC[C@H](NC(=O)[C@H](Cc2ccccc2)NC(=O)[C@H](CO)NC(=O)[C@H](CCCCN)NC(=O)[C@@H](NC(=O)[C@H](CC(C)C)NC(=O)[C@@H](NC(=O)[C@@H](N)CC(=O)O)[C@@H](C)O)[C@@H](C)O)C(=O)N[C@@H](Cc2ccc(O)cc2)C(=O)N[C@@H](Cc2ccccc2)C(=O)NCC(=O)N[C@@H]([C@@H](C)O)C(=O)N[C@@H](Cc2c[nH]c3ccccc23)C(=O)N1)C(=O)N[C@@H](Cc1ccc(O)cc1)C(=O)NCC(=O)N[C@@H](CO)C(=O)N[C@H](C(=O)O)[C@@H](C)O` [23–652] (H-DTLTKSFCYFGTWCQMYGST-OH; disulfide 8-14) was run?
The kon was 36600 M⁻¹ s⁻¹.

How did the kon (IL-23; [6]) turn out when `CC(C)C[C@@H]1NC(=O)CNC(=O)[C@H](Cc2ccccc2)NC(=O)[C@H](Cc2c[nH]c3ccccc23)NC(=O)[C@@H](NC(=O)[C@@H]2CCCN2C(=O)[C@H](CC(=O)O)NC(=O)[C@@H]2CCCN2C(=O)[C@@H](NC(=O)[C@@H](N)Cc2c[nH]cn2)C(C)C)CSSC[C@@H](C(=O)N[C@@H](CC(=O)O)C(=O)N[C@H](C(=O)N[C@@H](CC(C)C)C(=O)N[C@@H](CC(N)=O)C(=O)N[C@@H](CO)C(=O)O)C(C)C)NC(=O)[C@H](CC(C)C)NC1=O` [23–644] (H-HVPDPCWFGLLCDVLNS-OH; disulfide 6-12) was run?
Its kon is 49300 M⁻¹ s⁻¹.

B1: peptide 23–446 (free, chemically synthesized) (peptide)
peptide: GLRERCVRNYGHEFCQNWYW
notes: selected from a peptide phage library against IL-23; Two cysteines; source: synthetic peptide (CPC Scientific)
How did the IC50 (IL-23-AVI [2]) turn out when B1 was run?
Its IC50 is 590 nM.

What about the IC50 (IL-23-AVI [3]) of the same molecule?
Its IC50 is 240 nM.

And the Kd (IL-23-AVI [4])?
Its Kd is 22.3 nM.

And the koff (IL-23-AVI [4])?
Its koff is 0.0863 s⁻¹.

What about the kon (IL-23-AVI [4]) of the same molecule?
The kon was 3.88e+06 M⁻¹ s⁻¹.

B2: peptide 23–644 (free, chemically synthesized) (peptide)
peptide: HVPDPCWFGLLCDVLNS
notes: selected from a peptide phage library against IL-23; Two cysteines; also called FGL-containing peptide; source: synthetic peptide (CPC Scientific)
Which results are given for B2?
Kd (IL-23-AVI [4]): 2620 nM; koff (IL-23-AVI [4]): 0.129 s⁻¹; kon (IL-23-AVI [4]): 49300 M⁻¹ s⁻¹

B3: wild-type IL-23 displayed on yeast, Q9NPF7;P29460 K145A (protein)
chain 1: T1 sequence (Q9NPF7 20-189) with K145A
chain 2: T1 sequence (P29460 23-328)
Which ratio to parent [5] does the source give for B3 here?
The ratio to parent was 0.18.

B4: peptide 23–652 (free, chemically synthesized) (peptide)
peptide: DTLTKSFCYFGTWCQMYGST
notes: selected from a peptide phage library against IL-23; Two cysteines; also called FGLT-containing peptide; FGL-containing peptide; source: synthetic peptide (CPC Scientific)
Which Kd (IL-23-AVI [4]) does the source give for B4 here?
The Kd was 71.8 nM.

And the koff (IL-23-AVI [4])?
The koff was 0.00263 s⁻¹.

And the kon (IL-23-AVI [4])?
The kon was 36600 M⁻¹ s⁻¹.
